3 molecules from patent US20250002610A1 (Genmab, published 2025) can be followed below.

In assay [1] the target is T1, human DR4 (Death Receptor 4), cell surface expressed on human tumor cell lines (human, UniProt O00220 24-468).
T1 construct: also called TNFRSF10A; TRAIL-R1
T1 sequence: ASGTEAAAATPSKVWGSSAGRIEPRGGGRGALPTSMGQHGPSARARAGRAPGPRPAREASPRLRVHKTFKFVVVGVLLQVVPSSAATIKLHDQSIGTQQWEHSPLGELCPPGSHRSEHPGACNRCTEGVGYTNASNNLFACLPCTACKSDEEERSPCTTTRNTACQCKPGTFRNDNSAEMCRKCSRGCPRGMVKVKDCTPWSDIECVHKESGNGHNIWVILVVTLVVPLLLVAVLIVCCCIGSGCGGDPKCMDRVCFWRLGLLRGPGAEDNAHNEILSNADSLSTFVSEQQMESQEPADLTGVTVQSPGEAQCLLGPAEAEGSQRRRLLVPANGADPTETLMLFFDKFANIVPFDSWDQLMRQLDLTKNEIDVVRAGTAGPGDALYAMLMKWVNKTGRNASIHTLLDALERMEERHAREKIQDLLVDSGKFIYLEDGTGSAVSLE
The experiment in a line: flow cytometry, A549 cells, n = 2. A general note: In flow cytometry, cells or beads pass a laser one at a time.

Assay [2] concerns the target T1, human DR4 (Death Receptor 4), cell …. The experiment in a line: flow cytometry, HCT-15 cells, n = 2.
The target is the same in assay [3]. Nature of the assay: flow cytometry, MDA-MB-231 cells, N = 2.
Assay [4] has the same target. Nature of the assay: flow cytometry, PANC-1 cells, average ± SEM.
Assay [5] shares this target. Nature of the assay: flow cytometry, HCT-116 cells, average ± SEM.
Assay [6] shares this target. The experiment in a line: flow cytometry, MDA-MB-231 cells, average ± SEM.
For assay [7] the target is unchanged. The experiment in a line: flow cytometry, MDA-MB-231 cells, average ± SEM. This is another data set of the same source.
The target of assay [8] is T2, dog FAPα on Expi293F cells (dog (Canis familiaris), UniProt A5D7B7 1-760 (bovine entry)).
T2 chain: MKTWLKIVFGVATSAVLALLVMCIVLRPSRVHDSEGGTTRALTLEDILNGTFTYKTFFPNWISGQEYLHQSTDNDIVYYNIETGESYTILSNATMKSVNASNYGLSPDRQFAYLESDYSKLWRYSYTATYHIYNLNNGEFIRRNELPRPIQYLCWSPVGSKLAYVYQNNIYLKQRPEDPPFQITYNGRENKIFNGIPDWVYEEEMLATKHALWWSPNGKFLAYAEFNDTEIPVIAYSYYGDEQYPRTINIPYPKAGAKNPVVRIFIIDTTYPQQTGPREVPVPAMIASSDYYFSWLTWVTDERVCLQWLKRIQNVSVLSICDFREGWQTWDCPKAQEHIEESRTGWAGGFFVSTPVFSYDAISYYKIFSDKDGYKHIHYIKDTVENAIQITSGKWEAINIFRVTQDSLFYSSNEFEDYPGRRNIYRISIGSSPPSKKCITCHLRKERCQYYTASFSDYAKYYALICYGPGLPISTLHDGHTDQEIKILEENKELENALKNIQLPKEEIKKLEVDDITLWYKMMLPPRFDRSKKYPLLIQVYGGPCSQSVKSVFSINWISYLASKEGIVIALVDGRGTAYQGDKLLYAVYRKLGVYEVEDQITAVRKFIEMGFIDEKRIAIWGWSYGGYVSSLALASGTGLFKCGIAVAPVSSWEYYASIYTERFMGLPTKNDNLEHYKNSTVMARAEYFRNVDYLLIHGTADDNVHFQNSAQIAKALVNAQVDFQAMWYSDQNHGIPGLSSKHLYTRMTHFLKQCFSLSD
The experiment in a line: flow cytometry on Expi293F cells transiently expressing dog FAPα, gMFI PE. The procedure:
Binding of BisG1-FAPα-FERL/DR4-FERR, BisG1-FAPα-FEAL/b12-FEAR and IgG1-FAPα-FERL to FAPα of species commonly used for nonclinical toxicology studies was assessed by flow cytometry using Expi293F cells transiently expressing FAPα from different animal species. IgG1-b12 was included as negative control.
Expi293F cells expressing recombinant FAPα from various species (human, cynomolgus monkey, dog, pig, rat or mouse) were seeded (20,000 cells/well) in 96-Well round bottom plates (Greiner Bio-one, Cat #650101). Antibody dilutions were prepared using FACS buffer, consisting of PBS (Capricorn Scientific, Cat #PBS-10XA, diluted to 1×PBS in distilled water)+1% BSA (Roche, Cat #10735086001)+0.02% Sodium Azide (Bio-World, Cat #41920044-3). Plates were centrifuged, supernatant was removed, and cells were resuspended in 100 μL of antibody dilutions (concentration range 30-0.00017 μg/mL with three-fold serial dilutions using FACS buffer) of BisG1-FAPα-FERL/DR4-FERR, BisG1-FAPα-FEAL/b12-FEAR, IgG1-FAPα-FERL and IgG1-b12 and incubated for 30 min at 4° C. […] After 30 min incubation at 4° C., cells were washed with FACS buffer and resuspended in FACS buffer supplemented with TO-PRO-3 Iodide viability marker (Invitrogen, Cat #T3605, diluted 1:4,000). Antibody binding to viable cells (gMFI of PE on TO-PRO-3 negative cells) was analyzed by flow cytometry on a FACS Celesta and FACS_Diva software (first two experiments) or iQue® 3 and FlowJo software (last experiment). gMFI was determined and visualized using GraphPad Prism. Binding curves were analyzed using nonlinear regression analysis. The concentration (pg/mL) at which 50% of the maximal effect was observed (EC₅₀) was derived from the fitted curves.

B1: IgG1-DR4-FERR (antibody, V domains shown)
VH: QVQLQESGPGLVKPSGTLSLTCAVSGGSISSYSWWSWIRQPPGKGLEWIGELYHSGSTNYNPSLKSRVTISVDKSKNQFSLKLRSVTAADTAVYYCVRGVATIDYWGQGTLVTVSS
VL: QSALTQPPSASGSPGQSVTISCTGTSSDVGGYNFVSWYQQDPGKAPKLLIYEVTKRPSGVPDRFSGSKSGNTASLTVSGLQAEDEADYYCSSYAGSNNVMFGGGTKLTVLG
notes: Bivalent monoclonal IgG1 lambda
On to B1, for which the EC50 in assay [1] amounted to 0.26 µg/mL; in assay [2], 0.17 µg/mL; in assay [3], 0.26 µg/mL; in assay [4], 0.49 µg/mL; in assay [5], 0.16 µg/mL; in assay [6], 0.32 µg/mL. For the same molecule, the EC50 in assay [7] stood at 0.25 µg/mL.

B2: BisG1-FAPα-FEAL/b12-FEAR (bispecific antibody, human IgG1, kappa)
heavy 1: EVQLLESGGGLVQPGGSPRLSCEASGFTFSSYALSWVRQAPGKGLEWVSAISGSGGGRYYADSVKGRFTISRDNSKNTLFLQMNSLRAEDTAVYYCAKEGYSSSGTYWDHWGQGTLVTVSSASTKGPSVFPLAPSSKSTSGGTAALGCLVKDYFPEPVTVSWNSGALTSGVHTFPAVLQSSGLYSLSSVVTVPSSSLGTQTYICNVNHKPSNTKVDKRVEPKSCDKTHTCPPCPAPEFEGGPSVFLFPPKPKDTLMISRTPEVTCVVVAVSHEDPEVKFNWYVDGVEVHNAKTKPREEQYNSTYRVVSVLTVLHQDWLNGKEYKCKVSNKALPAPIEKTISKAKGQPREPQVYTLPPSREEMTKNQVSLTCLVKGFYPSDIAVEWESNGQPENNYKTTPPVLDSDGSFLLYSKLTVDKSRWQQGNVFSCSVMHEALHNHYTQKSLSLSPG
light 1: AIQMTQSPSSVSASVGDRVTITCRASQGVSSWLAWYQQKPGRAPKLLIYVASTLQSGVPSRFSGSGSGTDFTLTINSLQPEDFATYYCQQANSFPPTFGQGTRLEMKRTVAAPSVFIFPPSDEQLKSGTASVVCLLNNFYPREAKVQWKVDNALQSGNSQESVTEQDSKDSTYSLSSTLTLSKADYEKHKVYACEVTHQGLSSPVTKSFNRGEC
heavy 2: QVQLVQSGAEVKKPGASVKVSCQASGYRFSNFVIHWVRQAPGQRFEWMGWINPYNGNKEFSAKFQDRVTFTADTSANTAYMELRSLRSADTAVYYCARVGPYSWDDSPQDNYYMDVWGKGTTVIVSSASTKGPSVFPLAPSSKSTSGGTAALGCLVKDYFPEPVTVSWNSGALTSGVHTFPAVLQSSGLYSLSSVVTVPSSSLGTQTYICNVNHKPSNTKVDKRVEPKSCDKTHTCPPCPAPEFEGGPSVFLFPPKPKDTLMISRTPEVTCVVVAVSHEDPEVKFNWYVDGVEVHNAKTKPREEQYNSTYRVVSVLTVLHQDWLNGKEYKCKVSNKALPAPIEKTISKAKGQPREPQVYTLPPSREEMTKNQVSLTCLVKGFYPSDIAVEWESNGQPENNYKTTPPVLDSDGSFFLYSRLTVDKSRWQQGNVFSCSVMHEALHNHYTQKSLSLSPG
light 2: EIVLTQSPGTLSLSPGERATFSCRSSHSIRSRRVAWYQHKPGQAPRLVIHGVSNRASGISDRFSGSGSGTDFTLTITRVEPEDFALYYCQVYGASSYTFGQGTKLERKRTVAAPSVFIFPPSDEQLKSGTASVVCLLNNFYPREAKVQWKVDNALQSGNSQESVTEQDSKDSTYSLSSTLTLSKADYEKHKVYACEVTHQGLSSPVTKSFNRGEC
notes: Fab-arm exchange of IgG1-FAPα-FEAL and IgG1-b12-FEAR
Consider B2, for which the binding result in assay [8] is on record as “binds”.

B3: IgG1-FAPα-FERL (antibody)
heavy: EVQLLESGGGLVQPGGSPRLSCEASGFTFSSYALSWVRQAPGKGLEWVSAISGSGGGRYYADSVKGRFTISRDNSKNTLFLQMNSLRAEDTAVYYCAKEGYSSSGTYWDHWGQGTLVTVSSASTKGPSVFPLAPSSKSTSGGTAALGCLVKDYFPEPVTVSWNSGALTSGVHTFPAVLQSSGLYSLSSVVTVPSSSLGTQTYICNVNHKPSNTKVDKRVEPKSCDKTHTCPPCPAPEFERGPSVFLFPPKPKDTLMISRTPEVTCVVVDVSHEDPEVKFNWYVDGVEVHNAKTKPREEQYNSTYRVVSVLTVLHQDWLNGKEYKCKVSNKALPAPIEKTISKAKGQPREPQVYTLPPSREEMTKNQVSLTCLVKGFYPSDIAVEWESNGQPENNYKTTPPVLDSDGSFLLYSKLTVDKSRWQQGNVFSCSVMHEALHNHYTQKSLSLSPG
light: AIQMTQSPSSVSASVGDRVTITCRASQGVSSWLAWYQQKPGRAPKLLIYVASTLQSGVPSRFSGSGSGTDFTLTINSLQPEDFATYYCQQANSFPPTFGQGTRLEMKRTVAAPSVFIFPPSDEQLKSGTASVVCLLNNFYPREAKVQWKVDNALQSGNSQESVTEQDSKDSTYSLSSTLTLSKADYEKHKVYACEVTHQGLSSPVTKSFNRGEC
notes: Bivalent monoclonal IgG1 kappa
Take B3: the binding result in assay [8] was “binds”.

For orientation: EC50 means the midpoint of the concentration-response curve. High values mean lower potency in that assay, low ones higher potency in that assay.
